41 sequences from the nanobody polyreactivity screen of Harvey et al. (2022) can be followed below.

This series is described as follows: yeast display, Sf9 membrane polyspecificity reagent, FACS + sequencing; frameworks hold sequencing errors. An outline of the steps: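 Nanobodies from a synthetic yeast display library (Saccharomyces cerevisiae BJ5465), induced 36–48 hours with galactose, were stained 1 hour at 4 °C with 10% biotinylated, detergent-solubilized Sf9 membrane reagent, enriched on streptavidin microbeads, then FACS-sorted. Anti-HA (expression) and streptavidin (reagent binding) fluorescence set low and high (top ~1%) gates. Polyreactivity labels come from the gate of origin. Genes were colony-PCR amplified, MiSeq 2 × 250 sequenced and filtered by CDR length.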
Regarding “QVQLEESGGGLDQAGGILRLSFAASGSTIGGYAMGWYSQATGNERELVAAITRSGGRTYYADSVKGRFTISRDNGKNTVYLQMNSLKPEDTAVYYCATLVTNGRYDSWGQGTQVTVSS”, the “polyreactivity (PSR sort gate)” value is reported as “high polyreactivity”.
Then “QVQLVESGGGLVQAGGSLRLSCAASGRIFDKYTMGWYRQAPGKERELVATITRGGVSMYYADSVKGRFTISRDNAKNTVYLQMNSLKPEDTAVYYCNAVWRLRVRYGYWGQGTQVTVSA”, with “high polyreactivity”; and “QVQLVESGGGLVQAGGSLRLSCAASGRTFTHNVMGWYRQAPGKERELVAGISSTGGSTYYADSVKGRFTISRDNAKNTVYLQMNSLKPEDTAVYYCAVIGYHYSAISPPSQTRQGYDYWGQGTQVTLSS”, with “low polyreactivity”; and “QVQLVESGGGLVQAGGSLRLSCAASGLTFGRYAMGWYRPAPGKERELVAAISSGGSTYYADSVKGRFTISRDNAKNTVYLQMNSLKPEDTAVYYCAADYVGWYFVSGRDYWGQGTQVTVSS”, with “low polyreactivity”.
As for “QVQLVESGGGLVQAGGSLRLSCAASGYIFGRYAMGWYRQAPGKERELVAAISSTGDSTYYADSVKGRFTISRDNAKNTVYLQMNSLKPEDTAVYYCNAVVRRYSYGRYYYWGQGTQVTVSS”, the entry is “high polyreactivity”.
Then “QVQLVESCGGLVHAGGSLRLSCAASGRSFYRYAMGWYRKAPGKERELVAAISSGGSTYYADSVKGRFTISRDNANNTDYLQMNSLKPEDTAVYYCNADYGRRIHMDYWGQGTQVTVSS”, with “low polyreactivity”; and “QVQLVESGGGLVQAGGSLRLSCAASGRIFYYNAMGWYRQAPGKERELVAAITYSGTSTYYADSVKGRFTISRDNAKNTVYLQMNSLKPEDSAVYYCAVDSTDQAPPTYDYWGQGTQVTVSS”, with “low polyreactivity”; and “QVQLVESGGGLVQAGGSLRLSCAASGLIFHHNAMGWYRQTPGKERELVAAISRSAGSTYYADSVKGRFTISRDNAKNTVYLQMKSLKPEDTAVYYCAKGPTPTSKYDTVGYGYWGQGTQVTVSS”, with “low polyreactivity”.
As to “QVQLVESGGGLVQAGGSLRLSCAASRLTFQQYAMGWYRQAPGKERELVAAITSDGASTNYADSVKGRFTISRDNAKNTVYLQMNSLKPEDTAVYYCAARRRSRQYRYDYWGQGTQVTVSS”, the “polyreactivity (PSR sort gate)” value was “high polyreactivity”.
As for “QVQLIESGGGLVKAGGSLRLSCAATGSIFYRNTMGWYRQAPGKERELVARISWSGGRTYYADSVKGRFTISRDNAKNTVYLQMNSLKPEDTAVYYCAASTYGQRGTSYGYWGQGTQVSVSS”, the entry is “low polyreactivity”; as for “QVQLVESGGGLVQAGGSLRLSCAASGSIFRYNAKGWYRQAPGKERELVAARRSRGGSTNYADSVKGRFTISRDNAKNTVYLQMNSLKPEDNAVYFCAADGSYTKTTIYIFGGLDFWGQGTQVTVSS”, “low polyreactivity”; as for “QVQLVESGGGLVQAGGSLRLSCAASGIIFGRYAMGWYRQSPGKERELVAAISSRGGSTYYADSVKGRFTISRDNAKNTVYLQMNSLKPEDTAVYYCAATWGYLRGSTNYYYWGQGTQVTVSS”, “high polyreactivity”.
As for “QVQLVESGGGLVQAGGSLRLSCAASGRTLPRYAMGGYRQAPGKERELVARIRYRGVSTYYADSVKGRFTISRDNAKTSVYLQMNSLKPEDTAVYYCAARASRAGLSGYWGQGTQVTVSS”, the entry is “high polyreactivity”; as for “QDQLVESGGGLVQAGGSLRLSCAASGFTFYQYAMGLYIQAPGKERELVASITWNGGSTFYADSVKGRFTISRDNAKNTVYFQMNSLKPEDTAVYYCNVAYVYGSFRRRPMGYWGQGTQVTVSS”, “high polyreactivity”; as for “QVQLVESGGGLVQAGGSLRLSCAASGRIFGGNTMGWYRQAPGKERELVAAITSGGSTTYADSVKGRFTISRDNAKNTVYLHMNSLKPEDSEVYYCAARYVYPHQWTPYIRPYDYWGQGTQVTVSS”, “low polyreactivity”.
Then “QDQLVESGGGLVQAGGSLRLSCAAYGNTIIRYAMGWYRQAPGKERELVAAIAYSGGRTYYADSVKGRFTISRDNAKNTVFLQMNSLKPEDTAVYYCNAASRYGGDYWGQGTQVTVSS”, with “high polyreactivity”.
In the case of “HVQLVESGGGLVQAGGSLRLSCAASGNICYGYAMGGYRQAPGKERELVARINWSGSRTYYADSVKGRFTISRDNAKNTVYLQMNSLKPDDTAVYYCNTSTSRVPGNGDYWGQGTQVTVSS”, the “polyreactivity (PSR sort gate)” value was “high polyreactivity”.
Then “HVQLVESGGGLVQAGGSLRISCAASGRTLEQYAMGWYRQAPGKERELVAAINKSGARTYYADSVKGRFTISRDNAKNTVYLQMNSLKPEDTAVYYCNTVGPCYLFDYWGQGTQVTVSS”, with “high polyreactivity”; and “QVQLVESGGGLVQAGGSLRLSCAASGFTFDFYVMGWYRQAPGKERELVAAITSGGGTYYADSVKGRFTISRDNAKNTVYLQMNSLKPEDTAVYYCAVSVTTVSTYDYWGQGTQVTVSS”, with “low polyreactivity”; and “QVQLVESGGGLDQAGGSLRLSCAASGSIFPDYAMGWYIPAPGKERELVAAITWSGGNTYYADSVKGRFTISRDNAKNTVYLQMNSLKPEDTAVYYCAADISLHWYYYRRYNYWGQGTQVTVSS”, with “low polyreactivity”.
As for “QVHLVESGGGFVQAGGSLRLSCAASGSIFWLYAMGWYRHAPGKERELVAAISWSTGGTYYADSVKGRFTISRDNAKNTVYLQMNSLKPEDTAVYYCNADTYDQYNYWGQGTQVTVSS”, the entry is “low polyreactivity”; as for “QVQLVESGGGLVQAGGSLRLSCAASGRIFSRYAMGWYRQAPGKERELVAAIRSNGGRTYYADSVKGRFTISRDNAKNTVYLQMNSLKPEDTAVYYCAAAGGGKVSYRDYDYWGQGTQVTVSS”, “high polyreactivity”; as for “QLQLVESGGGLVQAGGSLRLSSAASGSIFYEYTMGWYRQAPGKEREVVAVITSGGTTNYADSVKGRFTISRDNANNTDYLQMNSLKPEDTAFYYCNAVYRTSFQRGGGYWGQGTQVTVSS”, “high polyreactivity”.
As for “QVQLVESGGGLVQAGGSLRLSCAASGTTIYTNAKGWYRQAPGKEREFVAAISWSGSSTYADSVKGRFTISRDNAKNTFYLQMNSLKPEDTAVYYCAADWFKQRTDYYWGQGTQVTVSS”, the entry is “low polyreactivity”.
For “QVQLVESGGGLVQAGGSLRLSCAASGLIFVSYAMGWYRQAPGKERELVAAISSGGSTYYADSVKGRFTISRDNAKNTVYLQINSLKPEDTAVYYCAAEYVFRGYVGYDYWGQGTQVTVSS”, the “polyreactivity (PSR sort gate)” value is given as “low polyreactivity”.
Then “QVQLVESGGGLVQAGGSLRLSCAASGFTFPGYVMGWYRQAPGKERELVAAISRSGGRTYYADSVKGRFTISRDNAKNTVYLQMNSQKPDDTAVYYCNTPDPGRDSDYWGQGTQVTVSS”, with “high polyreactivity”.
Turning to “QVQLVESGGGLVQAGGSLRLSCAASGSIFYEYAMGWYRQAPGKEREFVAAISSSGGSTYYADSVKGRFTISRDNAKNTVYLQMNSLKPEDTAVYYCAADIYYYLWGLYYWGQGTQVTVSS”, the “polyreactivity (PSR sort gate)” value is recorded as “low polyreactivity”.
As for “QVQLVESGGGLVQAGGSLRLSCAASGLTFSKNAMGWYRQAPGKERELVATISYSSSRTNYADSVKGRFTISRDNAKNTVYLQMNSLKPEDTAVYYCAARVYKGWPTHYDYWGQGTQVTVSS”, the entry is “high polyreactivity”.
As for “QVQIVESGGGLVQAGGSLRLSCAASVRTQRYYDMGCYRQAPVKERELVAAISSGGSTYYGDSLKGRFSISRDNAKNTVYLEMNSLKPEDTEVYYCAKRVSNWVSGGGYYYWGQCTQVTVSS”, the entry is “high polyreactivity”; as for “QVQLVESGGGLVQAGGSLRLSCAASGFTFVYYAMGWYRQAPGKERELVAAISGRGGSTYYADSVKGRFTISRDNAKNTVYLQMNSLKPEDTAVYYCATTYSWYYVPYKPHIYYYWGQGTQVTVSS”, “low polyreactivity”; as for “QVQLVESGGGLVQAGGSLRLSCSASGSTFEGYAMGWYRQAPGKERELVAAITSTGSTNYADSVKGRFTISRDNAKNTVYLQMNSLKPEDTAVYYCAGYPGRVYYFLGHDYWVQGTQVTVSS”, “low polyreactivity”.
Then “QVQHVESGGGLVQAGGSLRLICAASGRIFTRYAMGWYRQAPGKERELVAAISASGGSTHYADSVKGRFTISRDNAKNTVYLQMNSLKPEDTAVYYCADAYVSRNSGFGYWGQGTQVTVSS”, with “low polyreactivity”; and “QVQLVESGGGLVQAGGSLRLSCAASGRIFPVYAMGWYRQATGKERELVATISYSGSSTYYADSVKGRFTISRDNAKNTVYLQMNSLKPEDTAVYYCNADAFGPPGVQYYYWGQGTQVTVSS”, with “low polyreactivity”; and “QVQLVESPGGLDQAGGSLRLSGAASGSTLYDNAMGWYRQAPGKERELVAAISRSGGRTYYADSVKGRFTISRDNAKNTVYLHMNSLIPEDTAVYYCNAVVNGPGNYVTYDSWGQGTQVTVSS”, with “high polyreactivity”.
For “QVQLVESGGGVVQAGGSLRLSGAASGITFSVNAMGWYRPAPGKEREFVAAISSSGGSTYYADSVKGRFTISRDNAKNTVYLQMNSLKPEDTAVYYCAVDYYSYYYEDDYWGQGTQVTVSS”, the “polyreactivity (PSR sort gate)” value is “high polyreactivity”.
Then “QVQLVESGGGLVQAGGSLRLSCAASGRTFFGYAMGWYRQAPGKERELVAAISSGGSTYYADSVKGRFTISRDNAKNTVYLQMNSLKPEDTAVYYCAARSFTTRRSVIRNYWGQGTQVTVSS”, with “high polyreactivity”; and “QVQLVESGGGLVQAGGSLRLSCAASGIIFKSYAKGWYRQAPGKARELVAAMSWIGGSTYYADSVKGRFTISRDNAKHTVYFQMTSLKPEATAVYYCNARQYRRSRMDYWGQGTQVTVSS”, with “high polyreactivity”.
As for “QVQLVESGGGLVQAGGSLRLSCAASRLIFYTYAMGWYRQAPGKETELVAAISFSGGSTYYADSVTGRFTISRDNAKNTVYLLMTSLKPEDTAVYYCAARGYYGYYYWGQGTQVTVSS”, the entry is “high polyreactivity”; as for “QVQLVESGGGLVQAGGSLRLSCAASGFIFSSYAMGWYRQAPGKEREFVASISASGGTTYYADSVKGRFTISRDNAKNTVYLQMNSLKPEDTAVYYCAAPWLDAEDYWGQGTQVTVSS”, “high polyreactivity”; as for “QVQLVESGGGLVQAGGSLRLSCAASGSIFDYNAMGWYRQAPGKERELVAAITYSGGTTYADSVKGRFTISRDNAKNTVYLQMNSLKPEDTAVYYCNADVYRWSGSYTGWDSWHDYWGQGTQVTVSS”, “low polyreactivity”.
Then “QVQLEESGGGLVQAGGSLRLSCAASGSILDLNAMGWSRQATGKERELVAAISYSGDSTYYADSVKGRFTISRDNAKNTVYLQMNSQKPEDTAVYYCAAEVYGAVYDYWGQGTQVTVSS”, with “low polyreactivity”.
